# Measured values published in US11944665B2, “Methods and compositions for modulating lymphatic vessels in the central nervous system” (University of Virginia Patent Foundation, priority 2016, dated 2024).
# “Also recorded” adds a separate entry of the source.
# B1: VEGF-C156S: recombinant human VEGF-C156S, applied in a gel matrix on a thinned skull (protein, UniProt P49767 112-227, looked up, variant C156S)
# Vascular endothelial growth …: AHYNTEILKSIDNEWRKTQCMPREVCIDVGKEFGVATNTFFKPPSVSVYRCGGCCNSEGLQCMNTSTSYLSKTLFEITVPLSQGPKPVTISFANHTSCRCMSKLDVYRQVHSIIRR
# B2: VEGF-c: VEGFR3 agonist polypeptide, lymphangiogenic growth factor, SEQ ID NO: 1; recombinant protein injected into CSF (FIG. 2e used rhVEGF-c Cys156Ser) (protein, listed as Homo sapiens)
# chain: MHLLGFFSVACSLLAAALLPGPREAPAAAAAFESGLDLSDAEPDAGEATAYASKDLEEQLRSVSSVDELMTVLYPEYWKMYKCQLRKGGWQHNREQANLNSRTEETIKFAAAHYNTEILKSIDNEWRKTQCMPREVCIDVGKEFGVATNTFFKPPCVSVYRCGGCCNSEGLQCMNTSTSYLSKTLFEITVPLSQGPKPVTISFANHTSCRCMSKLDVYRQVHSIIRRSLPATLPQCQAANKTCPTNYMWNNHICRCLAQEDFMFSSDAGDDSTDGFHDICGPNKELDEETCQCVCRAGLRPASCGPHKELDRNSCQCVCKNKLFPSQCGANREFDENTCQCVCKRTCPRNQPLNPGKCACECTESPQKCLLKGKKFHHQTCSCYRRPCTNRQKACEPGFSYSEEVCRCVPSYWKRPQMS
# Columns and labels:
# [1] = system: meningeal lymphatic vessels; test: Transcranial gel+VEGF-C156S in old mice (Example 4); assay type: in vivo, C57BL/6 mice; conditions: one month transcranial treatment, 2 h after OVA-A647 ICM
# Procedure: […] of a gel matrix alone (vehicle) or containing 200 ng of recombinant human VEGF-C156S was applied every two weeks on top of a thinned skull of old C57BL/6 mice. One month after the initial treatment, OVA-A647 was injected ICM and mice were transcardially perfused with saline 2 h post injection. […] OVA-A647 alone is shown in the inset in the upper right corner of each of FIGS. 27A and 27B, and LYVE-1 alone is shown in the inset in the lower right corner of each of FIGS. 27A and 27B.
# [2] = system: meningeal lymphatic vessels; test: i.c.v. (cisterna magna) injection of rhVEGF-c, meningeal lymphatic vessel diameter (FIG. 2D-E); assay type: in vivo, mice; conditions: single injection of recombinant protein into the CSF (i.c.v.)
# From the text: FIGS. 2A-H are a series of microscope images and graphs showing Molecular and structural characterization of meningeal lymphatic vessels. FIG. 2A is a series of representative images of Prox1 expression in the nuclei of Lyve-1^+ vessels in the dural sinuses of Prox1^tdT mice (scale bars, 10p m)(in order of left-to-right, the four panels show Lyve-1, Prox1-tdTOMATO, DAPI, and overlay). FIG. 2B is a series of representative images of podoplanin and Lyve-1 labelling on dural sinuses (scale bar, 40 μm) (in order of left-to-right, the three panels show Lyve-1. Podoplanin, and overlay). FIG. 2C is a series of representative images of VEGFR3 and Lyve-1 staining on dural sinuses (scale bar, 20 μm)(in order of left-to-right, the three panels show VEGFR3. Lyve-1, and overlay). For FIGS. 2D and 2E Adult mice were injected i.c.v. (cisterna magna) with 4 μg of rhVEGF-c (Cys156Ser) or with PBS. Meninges were harvested 7 and 14 days after the injection. […] FIG. 2E is a graph showing quantification of the meningeal lymphatic vessel diameter (mean±s.e.m.; n=4 mice each group, *P<0.05, two-way ANOVA with Bonferroni post hoc test). FIGS. 2F and 2G are a series of representative images of smooth muscle cells (alpha-smooth muscle actin, α-SMA) and Lyve-1 labelling on dural sinuses (scale bars, 50 μm (g) or 20 μm(g)). […]
# meningeal lymphatic = test: Lymphatic drainage of fluorescent microbeads into deep cervical lymph nodes (FIG. 15); assay type: in vivo, mice; conditions: VEGF-c injected into CSF, 5 days after injection, vs PBS
# Procedure: FIGS. 15A-E are a series of diagrams, microscope images, and graphs showing modulation of the meningeal lymphatic affects drainage into the cervical lymph nodes. […] Fluorescent microbeads (0.5 μm in diameter-5 μl) were injected in the lateral ventricle of mice at a rate of 0.5 μl/min. 30 min later, the deep cervical lymph nodes were harvested, sliced and immunostained for the presence of fluorescent beads. FIG. 15B is a pair of representative sections of deep cervical lymph nodes from sham operated (left) and ligated (right) mice immunostained for lymphatic vasculature (Lyve-1), fluorescent microbeads and Lyve-1. Note the accumulation of microbeads in the subcapsular space of the lymph nodes in the sham operated mice (left). […] N=3-4 mice per group, Student-t-test. d. Quantification of the coverage of dCLN section by fluorescent beads in PBS and Visudyne injected mice (24 h after ablation). N=3-5 mice per group, *p<0.05, Student-t-test. e. Quantification of the coverage of dCLN section by fluorescent beads in PBS and VEGF-c injected mice (5 days after VEGF-c injection). N=4 mice per group.
Molecule,drainage of OVA-A647 into the dcLNs [1],OVA-A647 influx from the CSF into the parenchyma [1],diameter of meningeal lymphatic vessels [2],diameter of meningeal lymphatic vessels ([2]; listed as recombinant VEGF-c),lymphatic drainage (efficacy) after VEGF-c (meningeal lymphatic),lymphatic drainage (efficacy) after VEGF-c (meningeal lymphatic; listed as recombinant VEGF-c)
B1,increased,–,–,–,–,–
B2,–,improved CSF influx into brain,increase in diameter; also recorded: increase the diameters of meningeal lymphatic vessels,sufficient to increase diameter,improves the drainage,increase drainage efficacy
